Patent publication US20090238823A1 (published 2009)

T1: Cynomolgus TSLP (mammalian produced) (cynomolgus)
T1 construct: The Biacore construct is not specified beyond mammalian production; also called Cyno TSLP; cynomolgus TSLPwtpHF
T1 chain: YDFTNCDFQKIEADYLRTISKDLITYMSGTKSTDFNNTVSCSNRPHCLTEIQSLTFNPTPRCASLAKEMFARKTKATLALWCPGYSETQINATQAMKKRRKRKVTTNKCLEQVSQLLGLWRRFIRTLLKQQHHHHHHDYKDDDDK

T2: Murine TSLP (murine, UniProt Q9JIE6 20-140)
T2 construct: also called Mu TSLP
T2 sequence (looked up): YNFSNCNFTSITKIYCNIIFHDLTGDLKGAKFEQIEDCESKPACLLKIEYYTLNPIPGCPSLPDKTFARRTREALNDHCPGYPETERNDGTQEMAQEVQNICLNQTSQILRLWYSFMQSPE

B1: A2 IgG1 (antibody, V domains shown)
VH: EVQLVESGGVVVQPGGSLRLSCAASGFTFDDFTMHWVRQAPGKGLEWVSLISWDGGSTYYADSVKGRFTISRDNSKNSLYMQMNSLRTEDSALYYCARGPYYYFYGMDVWGQGTTVTVSS
VL: SSELTQDPAVSVALGQTVRITCQGDSLRTYYASWYQQKPGQAPILVISDKNNRPSGIPDRFSGSSSGNTASLTITGAQAEDEADYYCNSRDSSDNHLVVFGGGTKLTVL
notes: also called L2H2
B2: A2 IgG2 (antibody, V domains shown)
VH: EVQLVESGGVVVQPGGSLRLSCAASGFTFDDFTMHWVRQAPGKGLEWVSLISWDGGSTYYADSVKGRFTISRDNSKNSLYMQMNSLRTEDSALYYCARGPYYYFYGMDVWGQGTTVTVSS
VL: SSELTQDPAVSVALGQTVRITCQGDSLRTYYASWYQQKPGQAPILVISDKNNRPSGIPDRFSGSSSGNTASLTITGAQAEDEADYYCNSRDSSDNHLVVFGGGTKLTVL
notes: also called L2H2
B3: A3 IgG4 (antibody, V domains shown)
VH: QVQLVQSGAEVKKPGASVKVSCKASGYTFTDYYMYWVRQAPGQGPEWMGWINPNSGGTNYVQKFQGRVTMTRDTSISTAYMELSRMRSDDTAVYYCARDGGSSGWPLFAYWGLGTLVTVSS
VL: QSVLTQPPSVSGAPGQRVTISCTGSSSNIGAGFDVHWYQQLPGTAPKLLIYDNNNRPSGVPDRFSGSKSGTSASLAITGLQAEDEADYYCQSYDSNLSGSIVVFGGGTKLTVL
notes: also called L3H3
B4: A4 IgG4 (antibody, V domains shown)
VH: QVQLVQSGAEVKKPGASVKVSCKASGYIFTGDYMHWVRQAPGQGLEWMGWINPNSGGTNHARKFQGRVTMTRDTSISTAYMELSRLRSDDTAVYYCVRDRGTSGWPLFDYWGQGTLVTVSS
VL: QSVLTQPPSVSGAPGQRVTISCTGSSSNIGAGFDVHWYQLLPGTAPKLLIFDNNNRPSGVPDRFSGSKSGTSASLAITGLQAEDEADYYCQSYDSNLSGSIVVFGGGTKLTVL
notes: also called L4H4
B5: A5 IgG2 (antibody, V domains shown)
VH: QMQLVESGGGVVQPGRSLRLSCAASGFTFRTYGMHWVRQAPGKGLEWVAVIWYDGSNKHYADSVKGRFTITRDNSKNTLNLQMNSLRAEDTAVYYCARAPQWELVHEAFDIWGQGTMVTVSS
VL: SYVLTQPPSVSVAPGQTARITCGGNNLGSKSVHWYQQKPGQAPVLVVYDDSDRPSWIPERFSGSNSGNTATLTISRGEAGDEADYYCQVWDSSSDHVVFGGGTKLTVL
notes: also called L5H5

Columns and labels:
[1] = target: T3, Human TSLP (mammalian produced) (human, UniProt Q969D9 29-159); assay: SPR (Biacore 3000), antibody captured by anti-human Fc gamma, TSLP in solution, 25 C
T3 construct: also called Hu TSLP; huTSLPwtpHF
Description: (§1) The surface plasmon resonance experiments described in this patent application were conducted at 25° C. using a Biacore 3000 instrument (Biacore International AB, Uppsala, Sweden) equipped with a CM4 sensor chip. Anti-Fcγ specific capture antibodies were covalently immobilized to two flow cells on the CM4 chip using standard amine-coupling chemistry with HBS-EP as the running buffer. Briefly, each flow cell was activated with a 1:1 (v/v) mixture of 0.1 M NHS and 0.4 M EDC. AffiniPure Goat Anti-Human IgG, Fcγ Fragment Specific antibody (Jackson ImmunoResearch Inc. West Grove, Pa.) at 30 ug/ml in 10 mM sodium acetate, pH 5.0 was immobilized with a target level of 3,000 RUs on two flow cells. Residual reactive surfaces were deactivated with an injection of 1 M ethanolamine. The running buffer was then switched to HBS-EP+0.1 mg/ml BSA for all remaining steps.
(§2) The following antibodies were tested. […] No antibody was captured on the control flow cell surface. Human, cyno, or murine TSLP at various concentrations, along with buffer blanks were then flown over the two flow cells. The concentration ranges for human and cyno TSLP were from 0.44-100 nM while the concentration range for murine TSLP was from 8.2-6000 nM. A flow rate of 50 ul/min was used and a 2 minute association phase followed by a 10-30 minute dissociation phase. After each cycle the surfaces were regenerated with a 30 second injection of 10 mM glycine pH 1.5. Fresh antibody was then captured on the test flow cell to prepare for the next cycle.

[2] = target: T1, Cynomolgus TSLP (mammalian produced); assay: as above
Description: as §1, §2

Murine TSLP [3] = target: T2, Murine TSLP; assay: SPR (Biacore 3000), antibody captured by anti-human Fc gamma, TSLP in solution
Murine TSLP [4] = target: T2, Murine TSLP; assay: SPR (Biacore 3000), antibody captured by anti-human Fc gamma, TSLP in solution, 25 C
Description: as §1, §2

Binder | Kd [1] [nM] | koff [1] [s⁻¹] | Kd [2] [nM] | koff [2] [s⁻¹] | binding result (Murine TSLP [3]) | Kd (Murine TSLP [4]) [nM]
B1 | 0.203 | 0.000349 | 0.0468 | 0.000104 |  | 
B2 | 0.157 | 0.000285 | 0.0376 | 9.42e-05 | no binding (tested: murine TSLP 8.2-6000 nM) | 
B3 | 0.17 | 0.00027 |  |  |  | 
B4 | 0.34 | 0.00033 |  |  |  | 
B5 |  |  | 0.0512 |  |  | 377
